We go through eleven molecules from patent US20120316071A1 (published 2012).

The target of test [1] is T1, Recombinant Human DLL4 (delta-like protein 4) (human, UniProt Q9NR61 27-524).
T1 construct: also called rHuman DLL4; Delta-like 4
The test can be described thus: ELISA on coated DLL4, Fab at 100 nM (2-fold serial dilution).

The target in test [2] is T1, Recombinant Human DLL4 (delta-like …). The test can be described thus: ELISA on coated DLL4, Fab at 3.125 nM (2-fold serial dilution).
Test [3] shares this target. The test can be described thus: ELISA on coated DLL4, Fab at 6.25 nM (2-fold serial dilution).
Test [4] shares this target. The test can be described thus: ELISA on coated DLL4, Fab at 50 nM (2-fold serial dilution).
For test [5] the target is unchanged. In words: ELISA on coated DLL4, Fab at 12.5 nM (2-fold serial dilution).
Test [6] has the same target. In words: ELISA on coated DLL4, Fab at 25 nM (2-fold serial dilution).
The target of test [7] is T2, Recombinant Human DLL4 (delta-like protein 4) (human, UniProt Q9NR61 27-524).
T2 construct: Bought recombinant protein (R&D Systems Cat#1506-D4/CF); also called rHuman DLL4; Delta-like 4
In words: ECL (Meso Scale Discovery) binding assay on immobilised recombinant human DLL4; Fab concentration not given.

B1: Fab VH5-51_IGHD5-18*01>3_IGHJ4*01 G100K/G104T S28R & V3-4_IGLJ1*01 (Fab, V domains shown)
VH: EVQLVQSGAEVKKPGESLKISCKGSGYRFTSYWIGWVRQMPGKGLEWMGIIYPGDSDTRYSPSFQGQVTISADKSISTAYLQWSSLKASDTAMYYCARRKYSYTYDYFDYWGQGTLVTVSS
VL: QTVVTQEPSFSVSPGGTVTLTCGLSSGSVSTSYYPSWYQQTPGQAPRTLIYSTNTRSSGVPDRFSGSILGNKAALTITGAQADDESDYYCVLYMGSGISYVFGTGTKVTVL
notes: Fab; also called H:KT S28R & L:parent; H:KT S28R & L:wt
For B1, the ELISA signal was 0.529 in test [1]; 0.246 in test [2]; 0.303 in test [3]; 0.456 in test [4]; 0.309 in test [5]; 0.365 in test [6].

B2: Fab VH5-51_IGHD5-18*01>3_IGHJ4*01 G100K/G104T (H:KT) & V3-4_IGLJ1*01 G23A, N175K (Fab, V domains shown)
VH: EVQLVQSGAEVKKPGESLKISCKGSGYSFTSYWIGWVRQMPGKGLEWMGIIYPGDSDTRYSPSFQGQVTISADKSISTAYLQWSSLKASDTAMYYCARRKYSYTYDYFDYWGQGTLVTVSS
VL: QTVVTQEPSFSVSPGGTVTLTCALSSGSVSTSYYPSWYQQTPGQAPRTLIYSTNTRSSGVPDRFSGSILGNKAALTITGAQADDESDYYCVLYMGSGISYVFGTGTKVTVLG
notes: also called G100K/G104T & G23A/N175K
For the molecule B2, the “ECL signal” value in test [7] came out at 17800.

B3: Fab VH5-51_IGHD5-18*01>3_IGHJ4*01 G100K/G104T (H:KT) & V3-4_IGLJ1*01 (Fab, V domains shown)
VH: EVQLVQSGAEVKKPGESLKISCKGSGYSFTSYWIGWVRQMPGKGLEWMGIIYPGDSDTRYSPSFQGQVTISADKSISTAYLQWSSLKASDTAMYYCARRKYSYTYDYFDYWGQGTLVTVSS
VL: QTVVTQEPSFSVSPGGTVTLTCGLSSGSVSTSYYPSWYQQTPGQAPRTLIYSTNTRSSGVPDRFSGSILGNKAALTITGAQADDESDYYCVLYMGSGISYVFGTGTKVTVL
notes: Tested as Fab made in E. coli: VH joined to CH1 (Plasmid A, His and Flag tags), VL joined to lambda CL (Plasmid E); also called H:KT & L:wt; KT double mutant
Regarding B3, the “ECL signal” value in test [7] was determined as 9360.

B4: Fab VH5-51_IGHD5-18*01>3_IGHJ4*01 G100K/G104T (H:KT) & V3-4_IGLJ1*01 T78L (Fab, V domains shown)
VH: EVQLVQSGAEVKKPGESLKISCKGSGYSFTSYWIGWVRQMPGKGLEWMGIIYPGDSDTRYSPSFQGQVTISADKSISTAYLQWSSLKASDTAMYYCARRKYSYTYDYFDYWGQGTLVTVSS
VL: QTVVTQEPSFSVSPGGTVTLTCGLSSGSVSTSYYPSWYQQTPGQAPRTLIYSTNTRSSGVPDRFSGSILGNKAALTILGAQADDESDYYCVLYMGSGISYVFGTGTKVTVL
notes: Fab with CH1 and lambda CL from the expression plasmids; also called G100K/G104T & T78L
As to B4, in test [7], the “ECL signal” value turned out to be 9550.

B5: Fab VH5-51_IGHD5-18*01>3_IGHJ4*01 G100K/G104T (H:KT) & V3-4_IGLJ1*01 T78K (Fab, V domains shown)
VH: EVQLVQSGAEVKKPGESLKISCKGSGYSFTSYWIGWVRQMPGKGLEWMGIIYPGDSDTRYSPSFQGQVTISADKSISTAYLQWSSLKASDTAMYYCARRKYSYTYDYFDYWGQGTLVTVSS
VL: QTVVTQEPSFSVSPGGTVTLTCGLSSGSVSTSYYPSWYQQTPGQAPRTLIYSTNTRSSGVPDRFSGSILGNKAALTIKGAQADDESDYYCVLYMGSGISYVFGTGTKVTVL
notes: Fab with CH1 and lambda CL from the expression plasmids; also called G100K/G104T & T78K
With B5, the “ECL signal” value in test [7] turned out to be 9620.

B6: Fab VH5-51_IGHD5-18*01>3_IGHJ4*01 G100K/G104T (H:KT) & V3-4_IGLJ1*01 T78V (Fab, V domains shown)
VH: EVQLVQSGAEVKKPGESLKISCKGSGYSFTSYWIGWVRQMPGKGLEWMGIIYPGDSDTRYSPSFQGQVTISADKSISTAYLQWSSLKASDTAMYYCARRKYSYTYDYFDYWGQGTLVTVSS
VL: QTVVTQEPSFSVSPGGTVTLTCGLSSGSVSTSYYPSWYQQTPGQAPRTLIYSTNTRSSGVPDRFSGSILGNKAALTIVGAQADDESDYYCVLYMGSGISYVFGTGTKVTVL
notes: Fab with CH1 and lambda CL from the expression plasmids; also called G100K/G104T & T78V
On to B6, for which, in test [7], the “ECL signal” value is 9830.

B7: Fab VH5-51_IGHD5-18*01>3_IGHJ4*01 G100K/G104T (H:KT) & V3-4_IGLJ1*01 T78E (Fab, V domains shown)
VH: EVQLVQSGAEVKKPGESLKISCKGSGYSFTSYWIGWVRQMPGKGLEWMGIIYPGDSDTRYSPSFQGQVTISADKSISTAYLQWSSLKASDTAMYYCARRKYSYTYDYFDYWGQGTLVTVSS
VL: QTVVTQEPSFSVSPGGTVTLTCGLSSGSVSTSYYPSWYQQTPGQAPRTLIYSTNTRSSGVPDRFSGSILGNKAALTIEGAQADDESDYYCVLYMGSGISYVFGTGTKVTVL
notes: Fab with CH1 and lambda CL from the expression plasmids; also called G100K/G104T & T78E
In the case of B7, the “ECL signal” value in test [7] stood at 10600.

B8: Fab VH5-51_IGHD5-18*01>3_IGHJ4*01 G100K/G104T (H:KT) & V3-4_IGLJ1*01 T78S (Fab, V domains shown)
VH: EVQLVQSGAEVKKPGESLKISCKGSGYSFTSYWIGWVRQMPGKGLEWMGIIYPGDSDTRYSPSFQGQVTISADKSISTAYLQWSSLKASDTAMYYCARRKYSYTYDYFDYWGQGTLVTVSS
VL: QTVVTQEPSFSVSPGGTVTLTCGLSSGSVSTSYYPSWYQQTPGQAPRTLIYSTNTRSSGVPDRFSGSILGNKAALTISGAQADDESDYYCVLYMGSGISYVFGTGTKVTVL
notes: Fab with CH1 and lambda CL from the expression plasmids; also called G100K/G104T & T78S
As for B8, in test [7], the “ECL signal” value is 7550.

B9: Fab VH5-51_IGHD5-18*01>3_IGHJ4*01 G100K/G104T (H:KT) & V3-4_IGLJ1*01 S25A, A116T (Fab, V domains shown)
VH: EVQLVQSGAEVKKPGESLKISCKGSGYSFTSYWIGWVRQMPGKGLEWMGIIYPGDSDTRYSPSFQGQVTISADKSISTAYLQWSSLKASDTAMYYCARRKYSYTYDYFDYWGQGTLVTVSS
VL: QTVVTQEPSFSVSPGGTVTLTCGLASGSVSTSYYPSWYQQTPGQAPRTLIYSTNTRSSGVPDRFSGSILGNKAALTITGAQADDESDYYCVLYMGSGISYVFGTGTKVTVLG
notes: also called G100K/G104T & S25A/A116T; named S52A/A116T in the running text
As for B9, the “ECL signal” value in test [7] was 12200.

B10: Fab VH5-51_IGHD5-18*01>3_IGHJ4*01 G100K/G104T T58A & V3-4_IGLJ1*01 (Fab, V domains shown)
VH: EVQLVQSGAEVKKPGESLKISCKGSGYSFTSYWIGWVRQMPGKGLEWMGIIYPGDSDARYSPSFQGQVTISADKSISTAYLQWSSLKASDTAMYYCARRKYSYTYDYFDYWGQGTLVTVSS
VL: QTVVTQEPSFSVSPGGTVTLTCGLSSGSVSTSYYPSWYQQTPGQAPRTLIYSTNTRSSGVPDRFSGSILGNKAALTITGAQADDESDYYCVLYMGSGISYVFGTGTKVTVL
notes: Fab; also called H:KT T58A & L:parent
In the case of B10, the ELISA signal in test [1] was 0.253; in test [2], 0.244; in test [3] it was 0.249; in test [4] it was 0.209; in test [5], 0.23; in test [6] it was 0.22.

B11: Fab VH5-51_IGHD5-18*01>3_IGHJ4*01 G100K/G104T T58D & V3-4_IGLJ1*01 (Fab, V domains shown)
VH: EVQLVQSGAEVKKPGESLKISCKGSGYSFTSYWIGWVRQMPGKGLEWMGIIYPGDSDDRYSPSFQGQVTISADKSISTAYLQWSSLKASDTAMYYCARRKYSYTYDYFDYWGQGTLVTVSS
VL: QTVVTQEPSFSVSPGGTVTLTCGLSSGSVSTSYYPSWYQQTPGQAPRTLIYSTNTRSSGVPDRFSGSILGNKAALTITGAQADDESDYYCVLYMGSGISYVFGTGTKVTVL
notes: Fab; also called H:KT T58D & L:parent
For B11, the ELISA signal in test [1] stood at 0.219; in test [2], 0.252; in test [3], 0.224; in test [4], 0.23; in test [5], 0.223; in test [6] it was 0.218.
